Assay results taken from patent US20260062488A1 (AbbVie / Abbott, published 2026).
Numbering of substitutions follows the chain as printed. Names may count otherwise.

Key:
[1] = biological target: T1, cynomolgus α4β7 integrin (cynomolgus monkey); assay: FACS, cyno CD4+ memory
T1 construct: whole, on cells; On CHOK1-cα4β7 cells or cynomolgus blood lymphocytes; also called cα4β7; cyno α4β7

[2] = biological target: T1, cynomolgus α4β7 integrin; assay: binding to cyno CD4+ Tm cells
[3] = biological target: T1, cynomolgus α4β7 integrin; assay: FACS, cyno CD4+ memory; remark: listed apart in the source
[4] = biological target: T1, cynomolgus α4β7 integrin; assay: FACS, cyno CD8+ memory T cells
[5] = biological target: T1, cynomolgus α4β7 integrin; assay: FACS, cyno CD4+ total
[6] = biological target: T1, cynomolgus α4β7 integrin; assay: FACS, cyno CD8+ memory
[7] = biological target: T2, cynomolgus FcγRIIa extracellular domain protein (cynomolgus monkey); assay: SPR (Biacore), N = 1
T2 construct: extracellular domain; also called Cyno FcγRIIa

[8] = biological target: T3, cynomolgus FcγRIIb extracellular domain protein (cynomolgus monkey); assay: SPR (Biacore), N = 1
T3 construct: extracellular domain; also called Cyno FcγRIIb

[9] = biological target: T4, cynomolgus FcγRIII extracellular domain protein (cynomolgus monkey, UniProt Q8SPW2 17-208); assay: SPR (Biacore), N = 1
T4 construct: extracellular domain; also called Cyno FcγRIII
T4 sequence (Q8SPW2 17-208): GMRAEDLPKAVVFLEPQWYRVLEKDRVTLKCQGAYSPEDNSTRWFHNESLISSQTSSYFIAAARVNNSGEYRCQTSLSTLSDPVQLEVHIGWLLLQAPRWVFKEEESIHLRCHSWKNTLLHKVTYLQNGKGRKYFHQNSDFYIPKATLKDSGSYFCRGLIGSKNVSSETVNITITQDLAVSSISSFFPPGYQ

[10] = biological target: T5, cynomolgus FcγRI extracellular domain protein (cynomolgus monkey); assay: SPR (Biacore), N = 1
T5 construct: extracellular domain; also called Cyno FcγRI

[11] = biological target: T6, FcgRIIA R131 (human, UniProt P12318); assay: flow cytometry on CHO-K1 cells expressing the receptor (curve FcgRIIA R131), monomeric antibody, F(ab')2 anti-human IgG AF647; N=1
T6 construct: cell surface, on engineered CHO-K1 cells; the list of molecules has only an FcγRIIa on CHO-K1 cells without the variant; also called human FcγRIIa (R131) on CHO-K1 cells
T6 sequence (receptor chain, looked up): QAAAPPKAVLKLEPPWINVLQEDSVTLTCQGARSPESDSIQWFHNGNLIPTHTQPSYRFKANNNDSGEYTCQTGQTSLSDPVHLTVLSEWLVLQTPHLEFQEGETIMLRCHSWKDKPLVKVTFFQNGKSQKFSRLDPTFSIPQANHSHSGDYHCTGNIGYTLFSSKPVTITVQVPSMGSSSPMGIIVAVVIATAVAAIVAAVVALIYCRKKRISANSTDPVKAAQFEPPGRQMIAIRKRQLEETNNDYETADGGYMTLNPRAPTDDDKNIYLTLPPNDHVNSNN

[12] = biological target: T7, human FcγRIIIa (F158) extracellular domain protein (human, UniProt P08637 17-208); assay: SPR (Biacore), N = 1
T7 construct: extracellular domain; also called hFcγRIIIa (F158); FcγRIIIa158F
T7 sequence (P08637 17-208): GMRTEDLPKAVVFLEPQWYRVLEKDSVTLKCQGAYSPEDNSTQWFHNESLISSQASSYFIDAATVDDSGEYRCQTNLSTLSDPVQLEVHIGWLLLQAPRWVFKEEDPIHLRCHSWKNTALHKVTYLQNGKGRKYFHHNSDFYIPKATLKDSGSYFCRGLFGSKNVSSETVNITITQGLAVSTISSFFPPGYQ

[13] = biological target: T8, human FcγRIIb extracellular domain protein (human, UniProt P31994 43-217); assay: SPR (Biacore), N = 1
T8 construct: extracellular domain; also called hFcγRIIb
T8 sequence (looked up): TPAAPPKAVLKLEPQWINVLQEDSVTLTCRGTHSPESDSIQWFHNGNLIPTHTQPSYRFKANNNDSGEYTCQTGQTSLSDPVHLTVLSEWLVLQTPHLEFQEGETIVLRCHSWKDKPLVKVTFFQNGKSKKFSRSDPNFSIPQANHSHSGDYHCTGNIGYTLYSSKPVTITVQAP

[14] = biological target: T9, human FcγRIIIa (V158) extracellular domain protein (human, UniProt P08637 17-208); assay: SPR (Biacore), N = 1
T9 construct: extracellular domain; also called hFcγRIIIa (V158); FcγRIIIa158V
T9 sequence (P08637 17-208 F176V limits assumed): as the sequence (P08637 17-208) above, with F160V counted along it

[15] = biological target: T10, human FcγRIIa (R131) extracellular domain protein (human, UniProt P12318 34-217); assay: SPR (Biacore), N = 1
T10 construct: extracellular domain; also called hFcγRIIa (R131); FcγRIIa 131R
T10 sequence (looked up): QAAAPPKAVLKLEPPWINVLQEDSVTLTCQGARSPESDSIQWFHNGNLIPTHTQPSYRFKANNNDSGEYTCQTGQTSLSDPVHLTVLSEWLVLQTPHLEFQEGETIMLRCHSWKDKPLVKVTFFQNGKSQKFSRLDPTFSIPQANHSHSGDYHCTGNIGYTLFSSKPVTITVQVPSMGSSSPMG

[16] = biological target: T11, human FcγRIIa (H131) extracellular domain protein (human, UniProt P12318 34-217); assay: SPR (Biacore), N = 1
T11 construct: extracellular domain; also called hFcγRIIa (H131); FcγRIIa 131H
T11 sequence (looked up): T10 sequence (looked up) with R134H

[17] = biological target: T12, human FcγRI extracellular domain protein (human, UniProt P12314 16-292); assay: SPR (Biacore), N = 1
T12 construct: extracellular domain; also called hFcγRI
T12 sequence (P12314 16-292): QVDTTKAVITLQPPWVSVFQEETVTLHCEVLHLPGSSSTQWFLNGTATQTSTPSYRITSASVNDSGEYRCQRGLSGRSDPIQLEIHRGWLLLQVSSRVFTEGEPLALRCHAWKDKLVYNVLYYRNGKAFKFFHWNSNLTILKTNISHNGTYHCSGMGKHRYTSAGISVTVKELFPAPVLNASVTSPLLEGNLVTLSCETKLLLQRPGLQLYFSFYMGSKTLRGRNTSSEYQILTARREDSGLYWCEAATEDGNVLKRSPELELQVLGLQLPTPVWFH

[18] = biological target: T1, cynomolgus α4β7 integrin; assay: FACS, cyno CD4+ memory T cells
[19] = biological target: T1, cynomolgus α4β7 integrin; assay: FACS, cyno CD8+ naïve T cells
[20] = biological target: T1, cynomolgus α4β7 integrin; assay: FACS, cyno CD8+ total

B1: Ab-h1.9d-WT (antibody, human IgG1, kappa)
heavy: not shown
light: DIQMTQSPSSLSASVGDRVTITCHASQDISDNIGWLQQKPGKSFKLLIYHGTNLEDGVPSRFSGSGSGTDYTLTISSLQPEDFATYYCVQYAQFPWTFGGGTKVEIKRTVAAPSVFIFPPSDEQLKSGTASVVCLLNNFYPREAKVQWKVDNALQSGNSQESVTEQDSKDSTYSLSSTLTLSKADYEKHKVYACEVTHQGLSSPVTKSFNRGEC
notes: IgG1/kappa with D356E and L358M (EU); also called Anti-human α4β7 (AC-166667) hu IgG1/k WT mAb
EC50 [1]: 0.01 nM
EC50 [2]: 0.01 nM
EC50 [3]: 0.01 nM
EC50 [4]: 0.036 nM
EC50 [5]: 0.03 nM
EC50 [6]: 0.036 nM
Kd [7]: 8.2 µM
Kd [8]: 7.1 µM
Kd [9]: 160 nM
Kd [10]: 1.4 nM
binding result [11]: binds
Kd [12]: 3.1 µM
Kd [13]: 12 µM
Kd [14]: 100 nM
Kd [15]: 5.2 µM
Kd [16]: 4 µM
Kd [17]: 7 nM
EC50 [18]: 0.01 nM
EC50 [19]: 0.042 nM
EC50 [20]: 0.035 nM
